Stoichiometry N data for one substance are collected here from publication PMC5244374.

This test has as its target homotarsinin (Htr), cystine-linked homodimer (Phyllomedusa tarsius). Description: SEC; 2 mg/mL peptide, Superdex Peptide 10/300 GL, 20 mM phosphate pH 7.0, 0.3 M NaCl, room temperature, 0.3 mL/min; homotarsinin and distinctin compared by retention time.

Consider “homotarsinin (Htr), cystine-linked homodimer (peptide)”, for which the stoichiometry N came to 2.

In general, stoichiometry N refers to the number of molecules, sites or subunits per partner or assembly.
